Laboratory results as given in patent US20180009871A1 (INTARCIA THERAPEUTICS, published 2018).
Where no end group is shown, it is not given here. [ ]: non-standard residue; d: D form. Aib = CC(C)(N)C(=O)O

Assays:
[1] = target: human GLP-1 receptor (GLP-1R) (human, UniProt P43220 24-463); test: cell-based or functional assay
[2] = target: human glucagon receptor (GCGR) (human, UniProt P47871 26-477); test: cell-based or functional assay

Sequence of human GLP-1 receptor (GLP-1R) (P43220 24-463): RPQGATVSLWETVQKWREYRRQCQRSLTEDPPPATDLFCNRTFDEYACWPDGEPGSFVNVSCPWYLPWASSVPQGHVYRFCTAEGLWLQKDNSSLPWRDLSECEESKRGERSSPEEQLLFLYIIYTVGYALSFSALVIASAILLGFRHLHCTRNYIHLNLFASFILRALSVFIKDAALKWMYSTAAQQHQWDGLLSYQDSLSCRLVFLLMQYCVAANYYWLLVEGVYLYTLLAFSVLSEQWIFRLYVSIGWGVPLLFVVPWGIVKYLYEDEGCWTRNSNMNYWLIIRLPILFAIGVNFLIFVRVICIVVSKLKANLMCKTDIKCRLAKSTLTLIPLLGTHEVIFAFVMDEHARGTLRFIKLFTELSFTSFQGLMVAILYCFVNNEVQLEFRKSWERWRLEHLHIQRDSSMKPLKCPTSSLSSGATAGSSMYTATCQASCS

B1: Compound A16 (peptide)
peptide: YSHGTFTSDYSKYLD[Aib]TRAQEFV[Aib]WLEDEPSSGAPPPS-OH
modifications: N-terminus assumed
SMILES: CC(C)C[C@H](NC(=O)[C@H](Cc1ccc(O)cc1)NC(=O)[C@H](CCCCN)NC(=O)[C@H](CO)NC(=O)[C@H](Cc1ccc(O)cc1)NC(=O)[C@H](CC(=O)O)NC(=O)[C@H](CO)NC(=O)[C@@H](NC(=O)[C@H](Cc1ccccc1)NC(=O)[C@@H](NC(=O)CNC(=O)[C@H](Cc1c[nH]cn1)NC(=O)[C@H](CO)NC(=O)[C@@H](N)Cc1ccc(O)cc1)[C@@H](C)O)[C@@H](C)O)C(=O)N[C@@H](CC(=O)O)C(=O)NC(C)(C)C(=O)N[C@H](C(=O)N[C@@H](CCCNC(=N)N)C(=O)N[C@@H](C)C(=O)N[C@@H](CCC(N)=O)C(=O)N[C@@H](CCC(=O)O)C(=O)N[C@@H](Cc1ccccc1)C(=O)N[C@H](C(=O)NC(C)(C)C(=O)N[C@@H](Cc1c[nH]c2ccccc12)C(=O)N[C@@H](CC(C)C)C(=O)N[C@@H](CCC(=O)O)C(=O)N[C@@H](CC(=O)O)C(=O)N[C@@H](CCC(=O)O)C(=O)N1CCC[C@H]1C(=O)N[C@@H](CO)C(=O)N[C@@H](CO)C(=O)NCC(=O)N[C@@H](C)C(=O)N1CCC[C@H]1C(=O)N1CCC[C@H]1C(=O)N1CCC[C@H]1C(=O)N[C@@H](CO)C(=O)O)C(C)C)[C@@H](C)O
- hGLP1 pEC50 (cAMP) [1]: < 9 pEC50
- hGCGR pEC50 (cAMP) [2]: 11.9 pEC50

B2: Compound A17 (peptide)
peptide: YSHGTFTSDYSKYLD[Aib]ERAQEFV[Aib]WLEDEPSSGAPPPS-OH
modifications: N-terminus assumed
SMILES: CC(C)C[C@H](NC(=O)[C@H](Cc1ccc(O)cc1)NC(=O)[C@H](CCCCN)NC(=O)[C@H](CO)NC(=O)[C@H](Cc1ccc(O)cc1)NC(=O)[C@H](CC(=O)O)NC(=O)[C@H](CO)NC(=O)[C@@H](NC(=O)[C@H](Cc1ccccc1)NC(=O)[C@@H](NC(=O)CNC(=O)[C@H](Cc1c[nH]cn1)NC(=O)[C@H](CO)NC(=O)[C@@H](N)Cc1ccc(O)cc1)[C@@H](C)O)[C@@H](C)O)C(=O)N[C@@H](CC(=O)O)C(=O)NC(C)(C)C(=O)N[C@@H](CCC(=O)O)C(=O)N[C@@H](CCCNC(=N)N)C(=O)N[C@@H](C)C(=O)N[C@@H](CCC(N)=O)C(=O)N[C@@H](CCC(=O)O)C(=O)N[C@@H](Cc1ccccc1)C(=O)N[C@H](C(=O)NC(C)(C)C(=O)N[C@@H](Cc1c[nH]c2ccccc12)C(=O)N[C@@H](CC(C)C)C(=O)N[C@@H](CCC(=O)O)C(=O)N[C@@H](CC(=O)O)C(=O)N[C@@H](CCC(=O)O)C(=O)N1CCC[C@H]1C(=O)N[C@@H](CO)C(=O)N[C@@H](CO)C(=O)NCC(=O)N[C@@H](C)C(=O)N1CCC[C@H]1C(=O)N1CCC[C@H]1C(=O)N1CCC[C@H]1C(=O)N[C@@H](CO)C(=O)O)C(C)C
- hGLP1 pEC50 (cAMP) [1]: < 9 pEC50
- hGCGR pEC50 (cAMP) [2]: 11.1 pEC50

B3: Compound A18 (peptide)
peptide: YSHGTFTSDYSKWLD[Aib]ARAQEFV[Aib]WLEDEPSSGAPPPS-OH
modifications: N-terminus assumed
SMILES: CC(C)C[C@H](NC(=O)[C@H](Cc1c[nH]c2ccccc12)NC(=O)[C@H](CCCCN)NC(=O)[C@H](CO)NC(=O)[C@H](Cc1ccc(O)cc1)NC(=O)[C@H](CC(=O)O)NC(=O)[C@H](CO)NC(=O)[C@@H](NC(=O)[C@H](Cc1ccccc1)NC(=O)[C@@H](NC(=O)CNC(=O)[C@H](Cc1c[nH]cn1)NC(=O)[C@H](CO)NC(=O)[C@@H](N)Cc1ccc(O)cc1)[C@@H](C)O)[C@@H](C)O)C(=O)N[C@@H](CC(=O)O)C(=O)NC(C)(C)C(=O)N[C@@H](C)C(=O)N[C@@H](CCCNC(=N)N)C(=O)N[C@@H](C)C(=O)N[C@@H](CCC(N)=O)C(=O)N[C@@H](CCC(=O)O)C(=O)N[C@@H](Cc1ccccc1)C(=O)N[C@H](C(=O)NC(C)(C)C(=O)N[C@@H](Cc1c[nH]c2ccccc12)C(=O)N[C@@H](CC(C)C)C(=O)N[C@@H](CCC(=O)O)C(=O)N[C@@H](CC(=O)O)C(=O)N[C@@H](CCC(=O)O)C(=O)N1CCC[C@H]1C(=O)N[C@@H](CO)C(=O)N[C@@H](CO)C(=O)NCC(=O)N[C@@H](C)C(=O)N1CCC[C@H]1C(=O)N1CCC[C@H]1C(=O)N1CCC[C@H]1C(=O)N[C@@H](CO)C(=O)O)C(C)C
- hGLP1 pEC50 (cAMP) [1]: < 9 pEC50
- hGCGR pEC50 (cAMP) [2]: 12.4 pEC50

B4: Compound A19 (peptide)
peptide: YSHGTFTSDYSKWLD[Aib]SRAQEFV[Aib]WLEDEPSSGAPPPS-OH
modifications: N-terminus assumed
SMILES: CC(C)C[C@H](NC(=O)[C@H](Cc1c[nH]c2ccccc12)NC(=O)[C@H](CCCCN)NC(=O)[C@H](CO)NC(=O)[C@H](Cc1ccc(O)cc1)NC(=O)[C@H](CC(=O)O)NC(=O)[C@H](CO)NC(=O)[C@@H](NC(=O)[C@H](Cc1ccccc1)NC(=O)[C@@H](NC(=O)CNC(=O)[C@H](Cc1c[nH]cn1)NC(=O)[C@H](CO)NC(=O)[C@@H](N)Cc1ccc(O)cc1)[C@@H](C)O)[C@@H](C)O)C(=O)N[C@@H](CC(=O)O)C(=O)NC(C)(C)C(=O)N[C@@H](CO)C(=O)N[C@@H](CCCNC(=N)N)C(=O)N[C@@H](C)C(=O)N[C@@H](CCC(N)=O)C(=O)N[C@@H](CCC(=O)O)C(=O)N[C@@H](Cc1ccccc1)C(=O)N[C@H](C(=O)NC(C)(C)C(=O)N[C@@H](Cc1c[nH]c2ccccc12)C(=O)N[C@@H](CC(C)C)C(=O)N[C@@H](CCC(=O)O)C(=O)N[C@@H](CC(=O)O)C(=O)N[C@@H](CCC(=O)O)C(=O)N1CCC[C@H]1C(=O)N[C@@H](CO)C(=O)N[C@@H](CO)C(=O)NCC(=O)N[C@@H](C)C(=O)N1CCC[C@H]1C(=O)N1CCC[C@H]1C(=O)N1CCC[C@H]1C(=O)N[C@@H](CO)C(=O)O)C(C)C
- hGLP1 pEC50 (cAMP) [1]: < 9 pEC50
- hGCGR pEC50 (cAMP) [2]: 11 pEC50

B5: Compound A20 (peptide)
peptide: YSHGTFTSDYSKYLD[Aib]KRAQEFV[Aib]WLEDEPSSGKPPPS-OH
modifications: N-terminus assumed
SMILES: CC(C)C[C@H](NC(=O)[C@H](Cc1ccc(O)cc1)NC(=O)[C@H](CCCCN)NC(=O)[C@H](CO)NC(=O)[C@H](Cc1ccc(O)cc1)NC(=O)[C@H](CC(=O)O)NC(=O)[C@H](CO)NC(=O)[C@@H](NC(=O)[C@H](Cc1ccccc1)NC(=O)[C@@H](NC(=O)CNC(=O)[C@H](Cc1c[nH]cn1)NC(=O)[C@H](CO)NC(=O)[C@@H](N)Cc1ccc(O)cc1)[C@@H](C)O)[C@@H](C)O)C(=O)N[C@@H](CC(=O)O)C(=O)NC(C)(C)C(=O)N[C@@H](CCCCN)C(=O)N[C@@H](CCCNC(=N)N)C(=O)N[C@@H](C)C(=O)N[C@@H](CCC(N)=O)C(=O)N[C@@H](CCC(=O)O)C(=O)N[C@@H](Cc1ccccc1)C(=O)N[C@H](C(=O)NC(C)(C)C(=O)N[C@@H](Cc1c[nH]c2ccccc12)C(=O)N[C@@H](CC(C)C)C(=O)N[C@@H](CCC(=O)O)C(=O)N[C@@H](CC(=O)O)C(=O)N[C@@H](CCC(=O)O)C(=O)N1CCC[C@H]1C(=O)N[C@@H](CO)C(=O)N[C@@H](CO)C(=O)NCC(=O)N[C@@H](CCCCN)C(=O)N1CCC[C@H]1C(=O)N1CCC[C@H]1C(=O)N1CCC[C@H]1C(=O)N[C@@H](CO)C(=O)O)C(C)C
- hGLP1 pEC50 (cAMP) [1]: < 9 pEC50
- hGCGR pEC50 (cAMP) [2]: 13.3 pEC50

B6: Compound A21 (peptide)
peptide: YSHGTFTSDYSKYLD[Aib]KRAQEFV[Aib]WLEDEPSSGEPPPS-OH
modifications: N-terminus assumed
SMILES: CC(C)C[C@H](NC(=O)[C@H](Cc1ccc(O)cc1)NC(=O)[C@H](CCCCN)NC(=O)[C@H](CO)NC(=O)[C@H](Cc1ccc(O)cc1)NC(=O)[C@H](CC(=O)O)NC(=O)[C@H](CO)NC(=O)[C@@H](NC(=O)[C@H](Cc1ccccc1)NC(=O)[C@@H](NC(=O)CNC(=O)[C@H](Cc1c[nH]cn1)NC(=O)[C@H](CO)NC(=O)[C@@H](N)Cc1ccc(O)cc1)[C@@H](C)O)[C@@H](C)O)C(=O)N[C@@H](CC(=O)O)C(=O)NC(C)(C)C(=O)N[C@@H](CCCCN)C(=O)N[C@@H](CCCNC(=N)N)C(=O)N[C@@H](C)C(=O)N[C@@H](CCC(N)=O)C(=O)N[C@@H](CCC(=O)O)C(=O)N[C@@H](Cc1ccccc1)C(=O)N[C@H](C(=O)NC(C)(C)C(=O)N[C@@H](Cc1c[nH]c2ccccc12)C(=O)N[C@@H](CC(C)C)C(=O)N[C@@H](CCC(=O)O)C(=O)N[C@@H](CC(=O)O)C(=O)N[C@@H](CCC(=O)O)C(=O)N1CCC[C@H]1C(=O)N[C@@H](CO)C(=O)N[C@@H](CO)C(=O)NCC(=O)N[C@@H](CCC(=O)O)C(=O)N1CCC[C@H]1C(=O)N1CCC[C@H]1C(=O)N1CCC[C@H]1C(=O)N[C@@H](CO)C(=O)O)C(C)C
- hGLP1 pEC50 (cAMP) [1]: < 9 pEC50
- hGCGR pEC50 (cAMP) [2]: 11.1 pEC50

B7: Compound A22 (peptide)
peptide: YSHGTFTSDYSKYLD[Aib]KRAQEFV[Aib]WLEDEPSSGSPPPS-OH
modifications: N-terminus assumed
SMILES: CC(C)C[C@H](NC(=O)[C@H](Cc1ccc(O)cc1)NC(=O)[C@H](CCCCN)NC(=O)[C@H](CO)NC(=O)[C@H](Cc1ccc(O)cc1)NC(=O)[C@H](CC(=O)O)NC(=O)[C@H](CO)NC(=O)[C@@H](NC(=O)[C@H](Cc1ccccc1)NC(=O)[C@@H](NC(=O)CNC(=O)[C@H](Cc1c[nH]cn1)NC(=O)[C@H](CO)NC(=O)[C@@H](N)Cc1ccc(O)cc1)[C@@H](C)O)[C@@H](C)O)C(=O)N[C@@H](CC(=O)O)C(=O)NC(C)(C)C(=O)N[C@@H](CCCCN)C(=O)N[C@@H](CCCNC(=N)N)C(=O)N[C@@H](C)C(=O)N[C@@H](CCC(N)=O)C(=O)N[C@@H](CCC(=O)O)C(=O)N[C@@H](Cc1ccccc1)C(=O)N[C@H](C(=O)NC(C)(C)C(=O)N[C@@H](Cc1c[nH]c2ccccc12)C(=O)N[C@@H](CC(C)C)C(=O)N[C@@H](CCC(=O)O)C(=O)N[C@@H](CC(=O)O)C(=O)N[C@@H](CCC(=O)O)C(=O)N1CCC[C@H]1C(=O)N[C@@H](CO)C(=O)N[C@@H](CO)C(=O)NCC(=O)N[C@@H](CO)C(=O)N1CCC[C@H]1C(=O)N1CCC[C@H]1C(=O)N1CCC[C@H]1C(=O)N[C@@H](CO)C(=O)O)C(C)C
- hGLP1 pEC50 (cAMP) [1]: < 9 pEC50
- hGCGR pEC50 (cAMP) [2]: 11 pEC50
